Reference: publication PMC11910884 (The Innovation, 2025)

Target: LgBiT-Npc1l1 expressed on OVA-Panc-02 cells (UniProt Q6T3U4 21-1333)
Experiment: split reporter

Sequence of LgBiT-Npc1l1 expressed on OVA-Panc-02 cells (Q6T3U4 21-1333): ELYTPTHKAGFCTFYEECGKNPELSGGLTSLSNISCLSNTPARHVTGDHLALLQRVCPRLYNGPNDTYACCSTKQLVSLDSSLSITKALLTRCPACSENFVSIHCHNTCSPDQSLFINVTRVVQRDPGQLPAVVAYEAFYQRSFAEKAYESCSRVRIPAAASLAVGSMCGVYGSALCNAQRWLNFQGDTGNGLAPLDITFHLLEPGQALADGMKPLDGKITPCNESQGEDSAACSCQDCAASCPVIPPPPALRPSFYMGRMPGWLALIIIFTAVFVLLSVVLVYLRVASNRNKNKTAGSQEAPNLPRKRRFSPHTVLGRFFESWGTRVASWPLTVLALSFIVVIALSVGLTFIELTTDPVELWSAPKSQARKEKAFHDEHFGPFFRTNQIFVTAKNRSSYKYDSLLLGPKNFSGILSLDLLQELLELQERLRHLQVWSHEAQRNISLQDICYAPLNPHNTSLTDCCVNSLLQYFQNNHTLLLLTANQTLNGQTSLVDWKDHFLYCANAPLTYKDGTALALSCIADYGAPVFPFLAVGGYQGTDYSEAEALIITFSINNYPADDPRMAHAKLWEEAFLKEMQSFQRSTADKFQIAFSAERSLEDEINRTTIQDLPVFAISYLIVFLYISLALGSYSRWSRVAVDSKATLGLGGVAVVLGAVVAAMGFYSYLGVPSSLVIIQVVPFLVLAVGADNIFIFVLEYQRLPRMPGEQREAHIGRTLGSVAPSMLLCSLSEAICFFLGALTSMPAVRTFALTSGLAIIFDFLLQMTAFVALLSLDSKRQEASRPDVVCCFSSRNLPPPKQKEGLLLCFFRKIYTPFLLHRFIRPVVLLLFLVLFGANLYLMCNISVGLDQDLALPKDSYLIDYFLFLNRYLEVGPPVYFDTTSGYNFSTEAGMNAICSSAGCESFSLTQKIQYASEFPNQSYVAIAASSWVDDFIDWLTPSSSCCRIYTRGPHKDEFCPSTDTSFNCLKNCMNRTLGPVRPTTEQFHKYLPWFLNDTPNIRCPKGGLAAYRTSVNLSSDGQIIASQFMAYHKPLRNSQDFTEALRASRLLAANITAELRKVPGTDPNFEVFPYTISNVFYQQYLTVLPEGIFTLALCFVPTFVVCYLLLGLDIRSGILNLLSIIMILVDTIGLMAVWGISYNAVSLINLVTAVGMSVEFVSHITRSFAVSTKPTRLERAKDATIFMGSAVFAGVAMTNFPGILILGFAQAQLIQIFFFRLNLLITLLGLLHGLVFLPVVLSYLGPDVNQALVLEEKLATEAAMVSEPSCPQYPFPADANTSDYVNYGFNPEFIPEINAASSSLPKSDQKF

fold luminescence over the NanoBiT negative controls: 1000 fold
B1: SmBiT-Itgal (receptor)
chain: YNLDTRPTQSFLAQAGRHFGYQVLQIEDGVVVGAPGEGDNTGGLYHCRTSSEFCQPVSLHGSNHTSKYLGMTLATDAAKGSLLACDPGLSRTCDQNTYLSGLCYLFPQSLEGPMLQNRPAYQECMKGKVDLVFLFDGSQSLDRKDFEKILEFMKDVMRKLSNTSYQFAAVQFSTDCRTEFTFLDYVKQNKNPDVLLGSVQPMFLLTNTFRAINYVVAHVFKEESGARPDATKVLVIITDGEASDKGNISAAHDITRYIIGIGKHFVSVQKQKTLHIFASEPVEEFVKILDTFEKLKDLFTDLQRRIYAIEGTNRQDLTSFNMELSSSGISADLSKGHAVVGAVGAKDWAGGFLDLREDLQGATFVGQEPLTSDVRGGYLGYTVAWMTSRSSRPLLAAGAPRYQHVGQVLLFQAPEAGGRWNQTQKIEGTQIGSYFGGELCSVDLDQDGEAELLLIGAPLFFGEQRGGRVFTYQRRQSLFEMVSELQGDPGYPLGRFGAAITALTDINGDRLTDVAVGAPLEEQGAVYIFNGKPGGLSPQPSQRIQGAQVFPGIRWFGRSIHGVKDLGGDRLADVVVGAEGRVVVLSSRPVVDVVTELSFSPEEIPVHEVECSYSAREEQKHGVKLKACFRIKPLTPQFQGRLLANLSYTLQLDGHRMRSRGLFPDGSHELSGNTSITPDKSCLDFHFHFPICIQDLISPINVSLNFSLLEEEGTPRDQKVGRAMQPILRPSIHTVTKEIPFEKNCGEDKKCEANLTLSSPARSGPLRLMSSASLAVEWTLSNSGEDAYWVRLDLDFPRGLSFRKVEMLQPHSRMPVSCEELTEGSSLLTKTLKCNVSSPIFKAGQEVSLQVMFNTLLNSSWEDFVELNGTVHCENENSSLQEDNSAATHIPVLYPVNILTKEQENSTLYISFTPKGPKTQQVQHVYQVRIQPSAYDHNMPTLEALVGVPWPHSEDPITYTWSVQTDPLVTCHSEDLKRPSSEAEQPCLPGVQFRCPIVFRREILIQVTGTVELSKEIKASSTLSLCSSLSVSFNSSKHFHLYGSKASEAQVLVKVDLIHEKEMLHVYVLSGIGGLVLLFLIFLALYKVGFFKRNLKEKMEADGGVPNGSPPEDTDPLAVPGEETKDMGCLEPLRESDKD
